We go through two molecules from patent publication US20240026407A1, “MODIFICATION OF SAPONINS” (GLAXOSMITHKLINE BIOLOGICALS SA, priority 2020, published 2024).

What all share (format): biochemical, Quillaja saponaria
A short description of test [1]: Experiment 5-1: screening of additional glucosidases for deglycosylation with purified QS-18 (0.04 mg/ml) at pH 7.5 and 30 deg C. The following applies: pH 7.5, 30 degrees C, 18 hours, LCMS/MS. On the procedure: The 94 additional genes, together with positive control (DNA encoding SEQ ID No. 262) and negative control, were transformed, expressed, lysed and reacted in the same manner as described above for Experiment 4-1, except the reaction was incubated at 30 degrees C. for 18 hours.
Samples were analysed by LCMS/MS according to the procedure in Experiment 4-1.

Test [2] in a line: Experiment 5-2: screening of additional glucosidases for deglycosylation with QS-18 in crude bark extract (80%) at pH 6 and 35 deg C. The following applies: CBE 80%, pH 6, 35 deg C, 18 hours; UV HPLC. A digest of the protocol:
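Clarified glucosidase lysate (prepared at pH 6) was incubated with pH 6-adjusted crude bark extract at 35 deg C with shaking for 18 hours. Reactions were quenched with MeCN containing 2% AcOH and hexanophenone, then analysed by UV HPLC.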

Test [3] can be described thus: Experiment 5-3: screening of additional glucosidases for deglycosylation with QS-18 in treated bark extract (80%) at pH 6 and 35 deg C. The following applies: TBE 80% (QS-21 approx. 4 g/L), pH 6, 35 deg C; UV HPLC. On the procedure: Experiment 5-1 was repeated, replacing CBE with Treated Bark Extract (TBE) at pH 6. TBE was prepared from CBE by PVPP treatment and concentration, to provide TBE with a QS-21 concentration of approximately 4 g/L. TBE was adjusted to pH 6 by dropwise addition of 2M NaOH with stirring.

B1: 871 (protein, listed as Dactylellina haptotyla)
chain: MLDESVSREIEETLAQLTLEEKISLLAGKDMWRTVPIPDKQVPSIKTSDGPSGARGDSFTGGTKAAFFPSGISMGATFNPELAYEVGQFIGDEVKSKSASVLLAPTACCHRSPLGGRNFESYSEDPLLSGKMASAYIRGVQSKNVAATMKHYAANEQETWRLHVDETIDETTLREIYLKPFEIAMREGRPWAVMSAYNIINGEHCDSNSLTLKQVLRGEWKYEGLVMSDWFGCNSMVDSLLAGLDLEMPGPAKVRPVKELVAKAEKDDSIREAVDKAARRVLTLIAKVGKWKDMTPEAPEISREDPETGKLIRRAGGEGVVLLKNDGALPLQPASLKSIAFVGPNAKATVAGGGGSANLNPNYLTQPYETFVKAIKEIDASIEVPYAQGCIIDRWIPPVNAESGLCRSGGPGSEPGWLVEWFRGHDLKGEVVSSSVFKNSDVFLWDGRPEGLNPAEGYSIRFSGQVSVPEDGNYNIALSTITAGNLYVDGELLIDNWDFKERGNLMMNIGSEEVVKTLELKKGQWYNIEVRNASIWPKDSPRDPPMEEIGALGVRLGLAAVYDNNSLIAQATDSVKNSDAVVIVVGLNNEWESESYDRTQTKLPRNQDELIEEIAKVNKNVIVVNQSGAPIDMPWVENPNVKGIIQAWYAGQEAGNVIADVLLGKQNPSGKLPLTFPVKLEDNPSYNYFPGKDKKVEYTEKLMVGYRYYDTDNVKPRFPFGYGLSYSSFKVGKPVLSTTELSEDGSFTATVEVSNTSAVAGAEVIQLYVQRKTSGTSSIKRPIKELKGFKKIHLQPGETKTAEVTVDDKSLGIWSPEAGKWVVEAGDYEVLVGTSSVYDELAAAGTVVAKSAWSWI
B1: in test [1], the “Experiment 5-1 % conv” value is reported as 7.8%. Besides, the “Experiment 5-2 % conv” value in test [2] was under 0.5%. Further, the “Experiment 5-3 % conv” value in test [3] was under 0.5%.

B2: 845 (protein, listed as Kitasatosporia setae)
chain: MTQLSMPSSLTTPASGTDHRVLDLERKARLVSGGDTFRTSPEPALGLFPIVCSDGPVGVRGERWDEADTALLLPCATALAASWDEELVARMGGLLAAEARRKGVHVVLAPTLNLHRSPLGGRNFECFSEDPLLTARIGAAYIGGVQALGVAATAKHYVANDSETERLTVDARVDERTLREVYLAPFEAAVRAGVWAVMSAYNRVNGTSMVEHPLLAEPLKGEWGFDGLVVSDWGSVREADGPGAAACDLSMPGPNPAWGPALAAAVRAGRVPAAALDDKVERLLRLAGRVGAFDPPPAGRAPVPADPATRGALRAAAVAGTVLLHNPDRLLPLDEPALRRVAVLGPNAATARVQGGGSASVFPAAPVSPLNGLRAALDPSVEVTHAPGVRTELRPTPLAAADCVLPDGSGPGVLVRYLAADGSPLHTEARATGRVLEPSADVDLTAVRTIEVASRFTAPSAGRWRLGVVGLGALRLEADGAVLLDEYVAPLSDDPTYLHVAPSFRQVELELAAGQGVDLLARRTVEPEHGRVLVLAADRPAAELEREFAHAVELAAAADVAVVVVGTTDEHESEGFDRAGLRLPGRQDELVEAVAAVNPRTVVVVNTGSPVLLPWRERVGAVLTCWFPGQEGGGALAEVLLGRAEPGGRLPTTWPDAEADCPVYATAPSGGRLAYAEGPHLGHRGWLRAGRTPAYWFGHGLGWGEWCYLALGEPSAPAADGSRTVRVALRNDGPRRSRETVQLYLSRPDSELDRPVRWLAGFGAVEAGPGERVEVELRLPQRALQHWSVEDRAWRTEPGTFVLHVGPHSGELPLAAALPVGA
B2: the “Experiment 5-1 % conv” value in test [1] is listed as 9.2%. Further, the “Experiment 5-2 % conv” value in test [2] is under 0.5%. The “Experiment 5-3 % conv” value in test [3] is under 0.5%.
